Results from the supplement of paper PMC10724198.

Experiments:
Saccharomyces cerevisiae [1] = test: protein stability index of tFT-peptide fusion in wild type (PSI (0-1 scale)); higher = more stable (slower turnover); settings: genetic background: wild type
Description: (§1)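 MPS profiling in S. cerevisiae of two library types built from selected 12-aa C-degron peptides (IN1, IN2, LN1, LN3, VN2, R1-R5, W1-W3, Atg1 and Rpa12 C-termini): saturation mutagenesis libraries and C-terminal +1 capping libraries (13 aa). Each peptide is fused to the C-terminus of a sfGFP-mCherry timer, after a GGGS linker. Cells are FACS-sorted into 8 mCherry/sfGFP bins and sequenced. PSI runs from 0 (unstable) to 1 (stable), measured once in wild type and in the das1Δ or doa10Δ background.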

Saccharomyces cerevisiae [2] = test: protein stability index of tFT-peptide fusion in deletion strain of DAS1 (PSI (0-1 scale)); higher = more stable (slower turnover)
Description: as §1
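Throughout, for protein stability index of tFT-peptide fusion in deletion strain of DAS1: PSI is a weighted mean of each variant's read distribution over the sorted stability bins, computed only for variants having over 10 reads in total.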
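Throughout, for protein stability index of tFT-peptide fusion in wild type: PSI derived as read-weighted mean over the 8 sorting bins, only variants exceeding 10 total reads kept, mCherry placed adjacent to the peptide and sfGFP distal.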

Q: Which protein stability index (Saccharomyces cerevisiae [1]) does the source give for LDKRNHLIKLLN here?
A: 0.137

Q: And the protein stability index (Saccharomyces cerevisiae [2])?
A: 0.599

Q: What does the source list for CTSCGYKFRKNN?
A: protein stability index (Saccharomyces cerevisiae [1]): 0.23; protein stability index (Saccharomyces cerevisiae [2]): 0.692

Q: Which protein stability index (Saccharomyces cerevisiae [1]) does the source give for ARWRVGLYRGAS here?
A: 0.683

Q: What about the protein stability index (Saccharomyces cerevisiae [2]) of the same sequence?
A: 0.641

Q: Which results are given for CTSVGYKFRTNN?
A: protein stability index (Saccharomyces cerevisiae [1]): 0.176; protein stability index (Saccharomyces cerevisiae [2]): 0.682

Q: VYGAVGGWRLVG was tested. Which protein stability index (Saccharomyces cerevisiae [1]) did it give?
A: 0.137

Q: And the protein stability index (Saccharomyces cerevisiae [2])?
A: 0.677

Q: For VRGAKGGWRLVG, which protein stability index (Saccharomyces cerevisiae [1]) is on record?
A: 0.28

Q: And the protein stability index (Saccharomyces cerevisiae [2])?
A: 0.67

Q: Which results are given for ARWRVGLWRGAY?
A: protein stability index (Saccharomyces cerevisiae [1]): 0.598; protein stability index (Saccharomyces cerevisiae [2]): 0.682

Q: What does the source list for FDKRNHLIKLLN?
A: protein stability index (Saccharomyces cerevisiae [1]): 0.131; protein stability index (Saccharomyces cerevisiae [2]): 0.589

Q: What does the source list for CTSCGQKFRTNN?
A: protein stability index (Saccharomyces cerevisiae [1]): 0.448; protein stability index (Saccharomyces cerevisiae [2]): 0.686

Q: VRGAVPGWRLVG was tested. Which protein stability index (Saccharomyces cerevisiae [1]) did it give?
A: 0.149

Q: And the protein stability index (Saccharomyces cerevisiae [2])?
A: 0.678

Q: For LVVYLSCVACINP, which protein stability index (Saccharomyces cerevisiae [1]) is on record?
A: 0.0199

Q: What about the protein stability index (Saccharomyces cerevisiae [2]) of the same sequence?
A: 0.0332

Q: What does the source list for VRGANGGWRLVG?
A: protein stability index (Saccharomyces cerevisiae [1]): 0.212; protein stability index (Saccharomyces cerevisiae [2]): 0.677

Q: RLIQPLPNQFLN was tested. Which protein stability index (Saccharomyces cerevisiae [1]) did it give?
A: 0.21

Q: What about the protein stability index (Saccharomyces cerevisiae [2]) of the same sequence?
A: 0.703

Q: Which protein stability index (Saccharomyces cerevisiae [1]) does the source give for LVVYLSCNACIN here?
A: 0.0647

Q: What about the protein stability index (Saccharomyces cerevisiae [2]) of the same sequence?
A: 0.0655

Q: ASLAASFWRVVG was tested. Which protein stability index (Saccharomyces cerevisiae [1]) did it give?
A: 0.135

Q: And the protein stability index (Saccharomyces cerevisiae [2])?
A: 0.695

Q: Which protein stability index (Saccharomyces cerevisiae [1]) does the source give for PDKRYHLIKLLN here?
A: 0.0495

Q: And the protein stability index (Saccharomyces cerevisiae [2])?
A: 0.597

Q: Which protein stability index (Saccharomyces cerevisiae [1]) does the source give for CTSCGYKFRTNNP here?
A: 0.698

Q: What about the protein stability index (Saccharomyces cerevisiae [2]) of the same sequence?
A: 0.69

Q: How did the protein stability index (Saccharomyces cerevisiae [1]) turn out when CTSCNYKFRTNN was run?
A: 0.407

Q: What about the protein stability index (Saccharomyces cerevisiae [2]) of the same sequence?
A: 0.681

Q: How did the protein stability index (Saccharomyces cerevisiae [1]) turn out when LVVYLWCVACIN was run?
A: 0.0141

Q: And the protein stability index (Saccharomyces cerevisiae [2])?
A: 0.0851

Q: What does the source list for PSLAASGWRVVG?
A: protein stability index (Saccharomyces cerevisiae [1]): 0.193; protein stability index (Saccharomyces cerevisiae [2]): 0.679

Q: How did the protein stability index (Saccharomyces cerevisiae [1]) turn out when RLIQPLPAQFLN was run?
A: 0.0736

Q: And the protein stability index (Saccharomyces cerevisiae [2])?
A: 0.602

Q: Which protein stability index (Saccharomyces cerevisiae [1]) does the source give for CTSCGYKFYTNN here?
A: 0.374

Q: And the protein stability index (Saccharomyces cerevisiae [2])?
A: 0.701

Q: Which results are given for FHMRWTFRYWVN?
A: protein stability index (Saccharomyces cerevisiae [1]): 0.0327; protein stability index (Saccharomyces cerevisiae [2]): 0.466

Q: PSLAASCWRVVG was tested. Which protein stability index (Saccharomyces cerevisiae [1]) did it give?
A: 0.143

Q: What about the protein stability index (Saccharomyces cerevisiae [2]) of the same sequence?
A: 0.675

Q: How did the protein stability index (Saccharomyces cerevisiae [1]) turn out when PDCRNHLIKLLN was run?
A: 0.136

Q: What about the protein stability index (Saccharomyces cerevisiae [2]) of the same sequence?
A: 0.673

Q: For RLIQPLPVQFLR, which protein stability index (Saccharomyces cerevisiae [1]) is on record?
A: 0.668

Q: And the protein stability index (Saccharomyces cerevisiae [2])?
A: 0.58

Q: With FSMRWTFRSWVN as the sequence, how does the protein stability index (Saccharomyces cerevisiae [1]) read?
A: 0.272

Q: And the protein stability index (Saccharomyces cerevisiae [2])?
A: 0.515

Q: Which protein stability index (Saccharomyces cerevisiae [1]) does the source give for RLIWPLPVQFLN here?
A: 0.0399

Q: And the protein stability index (Saccharomyces cerevisiae [2])?
A: 0.57

Q: How did the protein stability index (Saccharomyces cerevisiae [1]) turn out when CTSCGYHFRTNN was run?
A: 0.258

Q: And the protein stability index (Saccharomyces cerevisiae [2])?
A: 0.695

Q: How did the protein stability index (Saccharomyces cerevisiae [1]) turn out when FLIQPLPVQFLN was run?
A: 0.0527

Q: What about the protein stability index (Saccharomyces cerevisiae [2]) of the same sequence?
A: 0.582

Q: YVVYLSCVACIN was tested. Which protein stability index (Saccharomyces cerevisiae [1]) did it give?
A: 0.0134

Q: What about the protein stability index (Saccharomyces cerevisiae [2]) of the same sequence?
A: 0.0254

Q: What does the source list for KKHKKGQKIKIN?
A: protein stability index (Saccharomyces cerevisiae [1]): 0.294; protein stability index (Saccharomyces cerevisiae [2]): 0.576

Q: Which results are given for KKHKKGQNQKIN?
A: protein stability index (Saccharomyces cerevisiae [1]): 0.191; protein stability index (Saccharomyces cerevisiae [2]): 0.625

Q: What does the source list for PDKRNFLIKLLN?
A: protein stability index (Saccharomyces cerevisiae [1]): 0.112; protein stability index (Saccharomyces cerevisiae [2]): 0.61

Q: Which protein stability index (Saccharomyces cerevisiae [1]) does the source give for PSLAADFWRVVG here?
A: 0.171

Q: And the protein stability index (Saccharomyces cerevisiae [2])?
A: 0.712

Q: Which results are given for LVVYLSCVACIP?
A: protein stability index (Saccharomyces cerevisiae [1]): 0.0232; protein stability index (Saccharomyces cerevisiae [2]): 0.0442

Q: How did the protein stability index (Saccharomyces cerevisiae [1]) turn out when CTSCGYVFRTNN was run?
A: 0.196

Q: And the protein stability index (Saccharomyces cerevisiae [2])?
A: 0.698

Q: How did the protein stability index (Saccharomyces cerevisiae [1]) turn out when FSMRWTFRYWDN was run?
A: 0.0861

Q: And the protein stability index (Saccharomyces cerevisiae [2])?
A: 0.554

Q: Which protein stability index (Saccharomyces cerevisiae [1]) does the source give for PSLAASTWRVVG here?
A: 0.132

Q: What about the protein stability index (Saccharomyces cerevisiae [2]) of the same sequence?
A: 0.68

Q: What does the source list for FSMRWTFRYWVNQ?
A: protein stability index (Saccharomyces cerevisiae [1]): 0.141; protein stability index (Saccharomyces cerevisiae [2]): 0.558

Q: With RLIQPLPHQFLN as the sequence, how does the protein stability index (Saccharomyces cerevisiae [1]) read?
A: 0.0684

Q: What about the protein stability index (Saccharomyces cerevisiae [2]) of the same sequence?
A: 0.645

Q: How did the protein stability index (Saccharomyces cerevisiae [1]) turn out when PDKRNHLIKLLNL was run?
A: 0.298

Q: And the protein stability index (Saccharomyces cerevisiae [2])?
A: 0.665

Q: Which results are given for RLIQPLPVQFLNK?
A: protein stability index (Saccharomyces cerevisiae [1]): 0.647; protein stability index (Saccharomyces cerevisiae [2]): 0.676

Q: Which results are given for KKHKKGQKQEIN?
A: protein stability index (Saccharomyces cerevisiae [1]): 0.591; protein stability index (Saccharomyces cerevisiae [2]): 0.589

Q: VRGAVGGWRLVGQ was tested. Which protein stability index (Saccharomyces cerevisiae [1]) did it give?
A: 0.701

Q: And the protein stability index (Saccharomyces cerevisiae [2])?
A: 0.667

Q: For CTSCCYKFRTNN, which protein stability index (Saccharomyces cerevisiae [1]) is on record?
A: 0.211

Q: And the protein stability index (Saccharomyces cerevisiae [2])?
A: 0.661

Q: Which results are given for GLIQPLPVQFLN?
A: protein stability index (Saccharomyces cerevisiae [1]): 0.0806; protein stability index (Saccharomyces cerevisiae [2]): 0.62

Q: HKILRQKMNHQN was tested. Which protein stability index (Saccharomyces cerevisiae [1]) did it give?
A: 0.168

Q: What about the protein stability index (Saccharomyces cerevisiae [2]) of the same sequence?
A: 0.683

Q: For EVVYLSCVACIN, which protein stability index (Saccharomyces cerevisiae [1]) is on record?
A: 0.0159

Q: And the protein stability index (Saccharomyces cerevisiae [2])?
A: 0.0291

Q: How did the protein stability index (Saccharomyces cerevisiae [1]) turn out when VRGAVGGWRLVGM was run?
A: 0.621

Q: And the protein stability index (Saccharomyces cerevisiae [2])?
A: 0.685

Q: For VRGAVGGWRNVG, which protein stability index (Saccharomyces cerevisiae [1]) is on record?
A: 0.364

Q: What about the protein stability index (Saccharomyces cerevisiae [2]) of the same sequence?
A: 0.676

Q: Which results are given for FSMRWTFRYWVQ?
A: protein stability index (Saccharomyces cerevisiae [1]): 0.205; protein stability index (Saccharomyces cerevisiae [2]): 0.48

Q: For ARWRVGLWVGAS, which protein stability index (Saccharomyces cerevisiae [1]) is on record?
A: 0.468

Q: And the protein stability index (Saccharomyces cerevisiae [2])?
A: 0.545

Q: ARWRVGLWRTAS was tested. Which protein stability index (Saccharomyces cerevisiae [1]) did it give?
A: 0.0835

Q: What about the protein stability index (Saccharomyces cerevisiae [2]) of the same sequence?
A: 0.684

Q: Which results are given for VRGAVGIWRLVG?
A: protein stability index (Saccharomyces cerevisiae [1]): 0.156; protein stability index (Saccharomyces cerevisiae [2]): 0.681

Q: FSMRWTFRFWVN was tested. Which protein stability index (Saccharomyces cerevisiae [1]) did it give?
A: 0.052

Q: What about the protein stability index (Saccharomyces cerevisiae [2]) of the same sequence?
A: 0.419

Q: For PSLAASFWRVDG, which protein stability index (Saccharomyces cerevisiae [1]) is on record?
A: 0.68

Q: What about the protein stability index (Saccharomyces cerevisiae [2]) of the same sequence?
A: 0.7

Q: What does the source list for PDKRNHLIGLLN?
A: protein stability index (Saccharomyces cerevisiae [1]): 0.612; protein stability index (Saccharomyces cerevisiae [2]): 0.609
